For one substance, % activity, 100 µM and inhibition of kinase activity results are on record in US20140072613A1, “Compositions and Methods for Treating Cutaneous Scarring” (priority 2012, published 2014).

Common to all, as to test: cell-based or functional assay
Experiment [1] addresses ACK1(h) (human) (UniProt Q07912).
The target of experiment [2] is T1, ALK4(h) (human) (UniProt P36896).
T1 sequence (looked up): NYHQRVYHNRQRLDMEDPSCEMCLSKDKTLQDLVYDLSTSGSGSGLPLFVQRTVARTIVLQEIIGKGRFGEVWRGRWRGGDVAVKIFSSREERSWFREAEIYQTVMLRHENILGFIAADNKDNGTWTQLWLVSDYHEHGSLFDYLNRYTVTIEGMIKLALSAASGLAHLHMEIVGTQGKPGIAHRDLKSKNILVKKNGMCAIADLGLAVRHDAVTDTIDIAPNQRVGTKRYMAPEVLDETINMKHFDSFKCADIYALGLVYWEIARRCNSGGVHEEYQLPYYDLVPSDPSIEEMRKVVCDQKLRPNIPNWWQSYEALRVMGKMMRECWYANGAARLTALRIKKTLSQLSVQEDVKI

Experiment [3] has as its target ASK1(h) (human) (UniProt Q99683).
Experiment [4] has as its target CaMKI(h) (human) (UniProt Q14012).
Experiment [5] has as its target CaMKIIβ(h) (human) (UniProt Q13554).
Experiment [6] concerns the target DAPK1(h) (human) (UniProt P53355).
The target of experiment [7] is T2, EphA1(h) (human) (UniProt P21709).
T2 sequence (looked up): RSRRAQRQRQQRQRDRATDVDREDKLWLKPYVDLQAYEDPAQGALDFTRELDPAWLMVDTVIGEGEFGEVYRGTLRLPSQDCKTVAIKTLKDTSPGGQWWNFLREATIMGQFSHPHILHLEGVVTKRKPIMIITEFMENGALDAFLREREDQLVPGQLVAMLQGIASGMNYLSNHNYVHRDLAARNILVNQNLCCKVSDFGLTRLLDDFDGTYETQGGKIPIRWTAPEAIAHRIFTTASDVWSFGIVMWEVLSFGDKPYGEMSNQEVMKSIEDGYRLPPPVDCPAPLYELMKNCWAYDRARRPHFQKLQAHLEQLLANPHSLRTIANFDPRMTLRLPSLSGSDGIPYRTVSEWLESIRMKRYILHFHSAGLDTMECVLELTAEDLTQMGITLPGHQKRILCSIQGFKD

Experiment [8] has as its target EphA4(h) (human) (UniProt P54764).
The target of experiment [9] is EphB1(h) (human) (UniProt P54762).
Experiment [10] concerns the target EphB4(h) (human) (UniProt P54760).
Experiment [11] concerns the target FGFR1(h) (human) (UniProt P11362).
For experiment [12], the target named is IR(h) (human) (UniProt P06213).
Experiment [13] concerns the target T3, IRAK4(h) (human) (UniProt Q9NWZ3).
T3 sequence (looked up): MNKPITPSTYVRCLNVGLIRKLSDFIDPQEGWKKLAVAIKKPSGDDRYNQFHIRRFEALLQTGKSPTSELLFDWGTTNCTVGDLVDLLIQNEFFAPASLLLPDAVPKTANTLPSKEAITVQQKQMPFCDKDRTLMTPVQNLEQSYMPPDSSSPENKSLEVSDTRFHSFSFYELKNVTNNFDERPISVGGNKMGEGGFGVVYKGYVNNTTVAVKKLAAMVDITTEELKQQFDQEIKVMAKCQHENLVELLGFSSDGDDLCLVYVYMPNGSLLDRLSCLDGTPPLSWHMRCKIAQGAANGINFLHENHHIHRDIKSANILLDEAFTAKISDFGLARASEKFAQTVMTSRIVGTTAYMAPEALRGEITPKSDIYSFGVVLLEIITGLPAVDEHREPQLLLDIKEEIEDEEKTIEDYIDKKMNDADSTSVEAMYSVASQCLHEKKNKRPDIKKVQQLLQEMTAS

Experiment [14] has as its target KDR(h) (human) (UniProt P35968).
The target of experiment [15] is MLCK(h) (human).
Experiment [16] addresses PDGFRα(h) (human) (UniProt P16234).
The target in experiment [17] is Pim-2(h) (human) (UniProt Q9P1W9).
Experiment [18] deals with T4, Txk(h) (human) (UniProt P42681).
T4 sequence (looked up): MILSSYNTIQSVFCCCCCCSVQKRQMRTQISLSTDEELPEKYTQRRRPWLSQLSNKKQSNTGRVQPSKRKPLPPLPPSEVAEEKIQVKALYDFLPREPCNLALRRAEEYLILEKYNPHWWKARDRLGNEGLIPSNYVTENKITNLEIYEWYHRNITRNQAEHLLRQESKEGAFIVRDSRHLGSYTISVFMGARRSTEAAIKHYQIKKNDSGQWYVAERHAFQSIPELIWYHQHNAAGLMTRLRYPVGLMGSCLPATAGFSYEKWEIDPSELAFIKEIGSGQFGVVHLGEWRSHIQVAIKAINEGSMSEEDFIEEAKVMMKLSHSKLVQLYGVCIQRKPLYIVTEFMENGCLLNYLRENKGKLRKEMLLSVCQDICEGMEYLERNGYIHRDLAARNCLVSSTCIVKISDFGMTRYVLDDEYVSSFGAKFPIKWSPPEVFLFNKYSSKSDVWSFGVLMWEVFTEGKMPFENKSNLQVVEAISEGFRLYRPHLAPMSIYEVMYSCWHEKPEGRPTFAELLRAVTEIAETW

Experiment [19] deals with T5, ULK3(h) (human) (UniProt Q6PHR2).
T5 sequence (looked up): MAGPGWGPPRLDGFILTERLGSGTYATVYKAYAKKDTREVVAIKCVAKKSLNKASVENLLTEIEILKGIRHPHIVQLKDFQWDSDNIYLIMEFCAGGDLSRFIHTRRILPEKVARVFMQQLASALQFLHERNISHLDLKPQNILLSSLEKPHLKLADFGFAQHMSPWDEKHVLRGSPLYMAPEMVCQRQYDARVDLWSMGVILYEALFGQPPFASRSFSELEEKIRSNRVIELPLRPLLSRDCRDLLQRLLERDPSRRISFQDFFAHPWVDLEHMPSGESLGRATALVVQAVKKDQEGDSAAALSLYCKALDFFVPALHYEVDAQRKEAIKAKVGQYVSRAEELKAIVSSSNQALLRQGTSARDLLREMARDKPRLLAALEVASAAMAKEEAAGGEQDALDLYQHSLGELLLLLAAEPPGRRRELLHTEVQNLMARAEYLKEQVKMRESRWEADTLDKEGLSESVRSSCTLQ

CaMKI(h) (human), sequence (Q14012 whole entry): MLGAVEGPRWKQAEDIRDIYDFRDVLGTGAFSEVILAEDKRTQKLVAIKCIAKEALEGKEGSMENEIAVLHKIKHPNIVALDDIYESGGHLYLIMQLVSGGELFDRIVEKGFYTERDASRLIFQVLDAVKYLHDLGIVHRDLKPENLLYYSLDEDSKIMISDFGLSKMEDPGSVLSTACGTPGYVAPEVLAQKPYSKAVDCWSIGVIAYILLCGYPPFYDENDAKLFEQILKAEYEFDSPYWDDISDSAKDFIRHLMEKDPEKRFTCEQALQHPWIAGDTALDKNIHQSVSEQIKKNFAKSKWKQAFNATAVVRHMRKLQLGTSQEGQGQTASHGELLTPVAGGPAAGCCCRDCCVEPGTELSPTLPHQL
DAPK1(h) (human), sequence (P53355 1-363 limits assumed): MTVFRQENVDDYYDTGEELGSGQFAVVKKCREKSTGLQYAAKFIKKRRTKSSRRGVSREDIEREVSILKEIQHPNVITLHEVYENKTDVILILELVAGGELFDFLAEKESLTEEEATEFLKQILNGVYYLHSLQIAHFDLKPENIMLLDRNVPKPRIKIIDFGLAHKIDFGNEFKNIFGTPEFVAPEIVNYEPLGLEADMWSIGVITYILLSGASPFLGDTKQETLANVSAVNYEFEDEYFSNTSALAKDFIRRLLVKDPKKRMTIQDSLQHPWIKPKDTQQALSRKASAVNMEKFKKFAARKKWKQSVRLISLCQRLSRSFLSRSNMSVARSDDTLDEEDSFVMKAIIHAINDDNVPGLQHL
Pim-2(h) (human), sequence (Q9P1W9 whole entry): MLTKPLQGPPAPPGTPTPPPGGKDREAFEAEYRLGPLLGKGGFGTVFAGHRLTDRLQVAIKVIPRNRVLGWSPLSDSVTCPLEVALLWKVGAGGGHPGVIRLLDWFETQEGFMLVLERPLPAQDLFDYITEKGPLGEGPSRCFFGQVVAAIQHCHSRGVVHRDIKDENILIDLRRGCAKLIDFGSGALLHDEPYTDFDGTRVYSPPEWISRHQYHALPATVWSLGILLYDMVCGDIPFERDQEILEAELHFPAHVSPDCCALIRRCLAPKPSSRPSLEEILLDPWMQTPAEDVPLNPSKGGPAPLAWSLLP
KDR(h) (human), sequence (P35968 790-1356 limits assumed): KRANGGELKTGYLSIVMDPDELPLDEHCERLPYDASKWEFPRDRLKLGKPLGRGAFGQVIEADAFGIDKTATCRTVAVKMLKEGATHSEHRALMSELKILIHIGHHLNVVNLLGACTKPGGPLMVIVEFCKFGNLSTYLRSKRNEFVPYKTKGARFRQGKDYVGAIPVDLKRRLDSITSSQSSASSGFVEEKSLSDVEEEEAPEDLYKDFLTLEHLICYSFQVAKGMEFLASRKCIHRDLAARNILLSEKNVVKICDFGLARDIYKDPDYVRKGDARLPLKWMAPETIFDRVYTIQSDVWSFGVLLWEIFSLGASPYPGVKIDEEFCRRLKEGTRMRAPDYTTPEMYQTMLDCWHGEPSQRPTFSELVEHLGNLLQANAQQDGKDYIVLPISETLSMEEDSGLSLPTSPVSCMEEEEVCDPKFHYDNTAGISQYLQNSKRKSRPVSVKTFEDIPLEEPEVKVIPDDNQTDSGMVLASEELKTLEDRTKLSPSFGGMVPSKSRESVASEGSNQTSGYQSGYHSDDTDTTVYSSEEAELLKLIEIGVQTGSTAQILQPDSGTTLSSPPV
CaMKIIβ(h) (human), sequence (Q13554 whole entry): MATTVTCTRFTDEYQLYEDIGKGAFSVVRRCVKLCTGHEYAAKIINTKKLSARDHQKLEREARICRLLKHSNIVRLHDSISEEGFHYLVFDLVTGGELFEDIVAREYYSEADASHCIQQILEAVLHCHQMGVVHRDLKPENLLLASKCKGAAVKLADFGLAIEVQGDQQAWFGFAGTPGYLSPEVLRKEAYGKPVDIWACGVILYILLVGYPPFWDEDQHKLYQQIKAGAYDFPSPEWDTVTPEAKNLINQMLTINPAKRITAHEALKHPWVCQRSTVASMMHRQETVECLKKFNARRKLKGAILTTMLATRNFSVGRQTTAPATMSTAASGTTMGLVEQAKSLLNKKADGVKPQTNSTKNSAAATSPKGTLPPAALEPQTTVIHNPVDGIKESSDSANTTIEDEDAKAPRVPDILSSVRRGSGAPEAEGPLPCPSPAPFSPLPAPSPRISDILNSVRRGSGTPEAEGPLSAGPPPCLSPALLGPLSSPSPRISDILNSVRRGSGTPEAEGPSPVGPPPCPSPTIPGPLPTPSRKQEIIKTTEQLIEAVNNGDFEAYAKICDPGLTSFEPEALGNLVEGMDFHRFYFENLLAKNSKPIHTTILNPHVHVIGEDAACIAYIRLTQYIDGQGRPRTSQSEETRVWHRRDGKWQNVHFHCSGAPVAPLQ
FGFR1(h) (human), sequence (P11362 456-765 limits assumed): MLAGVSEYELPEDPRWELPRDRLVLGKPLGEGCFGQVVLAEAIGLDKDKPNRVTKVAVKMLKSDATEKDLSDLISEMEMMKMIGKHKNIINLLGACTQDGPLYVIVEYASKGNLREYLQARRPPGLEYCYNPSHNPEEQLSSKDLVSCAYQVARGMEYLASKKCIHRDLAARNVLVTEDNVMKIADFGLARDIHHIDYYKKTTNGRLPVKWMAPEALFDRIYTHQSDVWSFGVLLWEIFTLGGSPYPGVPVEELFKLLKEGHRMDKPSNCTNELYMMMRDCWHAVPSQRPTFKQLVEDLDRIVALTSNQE
EphB4(h) (human), sequence (P54760 561-987 limits assumed): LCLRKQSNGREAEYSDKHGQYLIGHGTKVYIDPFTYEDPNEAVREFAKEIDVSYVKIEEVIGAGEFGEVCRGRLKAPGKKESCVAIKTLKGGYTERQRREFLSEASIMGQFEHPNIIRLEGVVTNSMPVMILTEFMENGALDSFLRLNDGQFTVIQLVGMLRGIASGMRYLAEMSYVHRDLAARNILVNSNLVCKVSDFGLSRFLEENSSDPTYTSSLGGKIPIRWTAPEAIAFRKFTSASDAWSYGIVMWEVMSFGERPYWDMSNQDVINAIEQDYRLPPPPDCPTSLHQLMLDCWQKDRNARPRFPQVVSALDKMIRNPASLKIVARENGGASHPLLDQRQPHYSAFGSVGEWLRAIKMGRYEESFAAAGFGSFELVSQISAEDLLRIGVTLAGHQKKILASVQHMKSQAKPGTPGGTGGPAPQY
EphA4(h) (human), sequence (P54764 570-986 limits assumed): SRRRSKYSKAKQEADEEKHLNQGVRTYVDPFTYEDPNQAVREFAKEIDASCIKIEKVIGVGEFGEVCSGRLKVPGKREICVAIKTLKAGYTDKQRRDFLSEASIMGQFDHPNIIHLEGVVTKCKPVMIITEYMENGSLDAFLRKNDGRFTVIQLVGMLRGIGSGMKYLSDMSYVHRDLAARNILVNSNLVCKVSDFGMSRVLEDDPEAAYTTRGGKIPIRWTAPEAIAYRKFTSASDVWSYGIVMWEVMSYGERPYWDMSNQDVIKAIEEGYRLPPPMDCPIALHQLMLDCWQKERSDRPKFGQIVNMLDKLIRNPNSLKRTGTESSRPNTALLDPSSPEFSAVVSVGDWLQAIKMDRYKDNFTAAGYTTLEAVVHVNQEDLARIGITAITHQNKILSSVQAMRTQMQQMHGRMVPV
IR(h) (human), sequence (P06213 1005-1310 limits assumed): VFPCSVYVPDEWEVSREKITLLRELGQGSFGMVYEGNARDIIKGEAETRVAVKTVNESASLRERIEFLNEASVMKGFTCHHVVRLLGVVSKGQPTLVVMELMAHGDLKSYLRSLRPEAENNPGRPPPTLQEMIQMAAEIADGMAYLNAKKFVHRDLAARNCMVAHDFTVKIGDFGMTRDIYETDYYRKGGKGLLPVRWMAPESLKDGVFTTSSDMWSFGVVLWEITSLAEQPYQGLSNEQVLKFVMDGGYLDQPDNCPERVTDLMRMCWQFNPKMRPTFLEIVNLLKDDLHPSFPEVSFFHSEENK
PDGFRα(h) (human), sequence (P16234 550-1089 limits assumed): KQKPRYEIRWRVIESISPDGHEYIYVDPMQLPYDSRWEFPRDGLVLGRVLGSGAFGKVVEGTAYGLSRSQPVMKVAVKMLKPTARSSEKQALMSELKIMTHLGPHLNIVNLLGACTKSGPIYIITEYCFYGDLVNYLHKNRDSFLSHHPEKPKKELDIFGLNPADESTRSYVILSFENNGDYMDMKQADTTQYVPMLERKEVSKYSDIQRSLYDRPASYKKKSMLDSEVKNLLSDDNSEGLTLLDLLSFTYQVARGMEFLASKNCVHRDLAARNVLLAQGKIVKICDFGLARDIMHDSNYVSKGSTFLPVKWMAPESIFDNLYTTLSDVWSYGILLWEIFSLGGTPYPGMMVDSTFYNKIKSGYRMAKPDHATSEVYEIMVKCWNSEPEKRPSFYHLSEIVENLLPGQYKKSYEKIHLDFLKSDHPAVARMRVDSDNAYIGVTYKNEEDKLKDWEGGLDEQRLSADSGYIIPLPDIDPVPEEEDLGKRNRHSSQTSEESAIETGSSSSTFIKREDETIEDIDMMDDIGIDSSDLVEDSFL
EphB1(h) (human), sequence (P54762 564-984 limits assumed): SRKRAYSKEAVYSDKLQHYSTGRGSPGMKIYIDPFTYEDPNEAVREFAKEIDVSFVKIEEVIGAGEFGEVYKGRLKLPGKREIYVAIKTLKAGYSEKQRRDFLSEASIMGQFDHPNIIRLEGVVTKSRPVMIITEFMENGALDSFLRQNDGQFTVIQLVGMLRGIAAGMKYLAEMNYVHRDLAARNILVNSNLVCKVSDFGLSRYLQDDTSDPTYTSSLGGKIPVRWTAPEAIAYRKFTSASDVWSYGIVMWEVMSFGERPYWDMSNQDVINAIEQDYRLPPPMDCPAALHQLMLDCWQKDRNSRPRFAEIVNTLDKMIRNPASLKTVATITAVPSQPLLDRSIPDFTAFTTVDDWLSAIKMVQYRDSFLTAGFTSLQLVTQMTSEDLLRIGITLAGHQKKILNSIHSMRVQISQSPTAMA

In the case of MMI-0500 (peptide), the % activity, 100 µM in [1] is 64%; in experiment [2], 81%; in experiment [3], -4%; in [4] it was -1%; in experiment [5], 3%; in [6] it was 0%. Moreover, the % activity, 100 µM in [7] came to 40%; in experiment [8], 48%; in experiment [9] it was 37%; in experiment [10], 38%; in experiment [11], 18%; in experiment [12], 95%. Further, the % activity, 100 µM in [13] was 3%; in experiment [14], 15%; in [15], 0%; in [16], 40%; in experiment [17] it was 46%; in experiment [18], 10%. Further, the % activity, 100 µM in experiment [19] turned out to be 177%. In experiment [4], this substance yielded an inhibition of kinase activity at 100 µM above 65%.
